Measurements reported in patent publication US20260048158A1 (AKTIS ONCOLOGY, published 2026).
Where a chain is given by its changes, count along the chain named. Primed or numbered codes have the meaning given here. The star is where a group is joined. Biotin = O=C1N[C@H]2[C@H](CS[C@H]2CCCCC(=O)*)N1; PEG4′ = not defined here

T1: His-tagged B7-H3 protein (ThermoFisher, catalog #B7-H3_NP_001019907) (Homo sapiens (Human), UniProt Q5ZPR3 29-466)
T1 construct: Bought protein immobilised for SPR; also called ligand; target protein; not shown: His tag
T1 sequence: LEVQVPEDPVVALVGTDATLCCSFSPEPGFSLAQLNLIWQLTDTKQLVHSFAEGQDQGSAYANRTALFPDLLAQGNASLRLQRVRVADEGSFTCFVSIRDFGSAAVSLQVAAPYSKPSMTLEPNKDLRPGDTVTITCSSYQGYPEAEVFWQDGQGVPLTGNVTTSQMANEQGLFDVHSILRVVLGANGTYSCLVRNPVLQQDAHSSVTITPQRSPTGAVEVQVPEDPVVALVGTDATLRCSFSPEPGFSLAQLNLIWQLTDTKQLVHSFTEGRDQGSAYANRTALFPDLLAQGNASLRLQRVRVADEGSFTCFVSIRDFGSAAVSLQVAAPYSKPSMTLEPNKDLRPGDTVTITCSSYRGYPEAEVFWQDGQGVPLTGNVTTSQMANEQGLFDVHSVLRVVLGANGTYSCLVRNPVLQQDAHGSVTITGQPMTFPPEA

T2: B7-H3 expressed on the surface of cells (MCF7 cells; B7-H3-expressing cancer cells) (Homo sapiens (Human), UniProt Q5ZPR3 29-534)
T2 construct: Endogenous B7-H3 on MCF7 cells (DELFIA) and on an unnamed cancer cell line (flow cytometry); also called CD276
T2 sequence: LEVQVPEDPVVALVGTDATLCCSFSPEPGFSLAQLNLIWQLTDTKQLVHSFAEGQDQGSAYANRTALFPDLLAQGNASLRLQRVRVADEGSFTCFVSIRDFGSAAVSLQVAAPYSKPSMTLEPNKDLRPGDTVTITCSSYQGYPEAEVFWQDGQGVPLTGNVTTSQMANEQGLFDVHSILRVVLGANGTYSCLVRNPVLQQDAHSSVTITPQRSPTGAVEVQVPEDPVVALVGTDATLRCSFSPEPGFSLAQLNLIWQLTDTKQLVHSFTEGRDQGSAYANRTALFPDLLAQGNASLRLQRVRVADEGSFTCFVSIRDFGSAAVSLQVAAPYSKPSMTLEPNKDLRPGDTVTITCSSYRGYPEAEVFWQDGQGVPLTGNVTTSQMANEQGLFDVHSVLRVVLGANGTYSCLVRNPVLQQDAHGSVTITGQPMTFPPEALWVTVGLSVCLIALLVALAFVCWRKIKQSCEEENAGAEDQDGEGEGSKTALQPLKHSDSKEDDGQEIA

B1: Compound C234 (designed binder)
chain: CAXEKIAALSEIIWLPCLTYAQIXAFIAALNDDPCQSSEILSEAKELCS
modifications: (Kme3) trimethyllysine at 3; (Kme2) dimethyllysine at 24; N-terminal Biotin-PEG4; C-terminal NH2; two disulfide bridges among Cys1, Cys17, Cys35, Cys48
notes: also called C298
B2: Compound C318 (designed binder)
chain: B1 chain with A29X, D32X, K45X
modifications: (Kme3) at 3; (Kme2) at 24; (Kme) at 29 and 45; (Cit) citrulline at 32; N-terminal Biotin-PEG4; C-terminal NH2; two disulfide bridges among Cys1, Cys17, Cys35, Cys48
B3: Compound C304 (designed binder)
chain: B1 chain with K45X
modifications: (Kme3) at 3; (Kme) at 24 and 45; N-terminal Biotin-PEG4; C-terminal NH2; two disulfide bridges among Cys1, Cys17, Cys35, Cys48
B4: Compound C308 (designed binder)
chain: B1 chain with A29X, D32X, K45X
modifications: (Kme3) at 3; (Kme) at 24, 29, 32 and 45; N-terminal Biotin-PEG4; C-terminal NH2; two disulfide bridges among Cys1, Cys17, Cys35, Cys48
B5: Compound C300 (designed binder)
chain: B1 chain with X3R, S38A
modifications: (Kme2) at 24; N-terminal Biotin-PEG4; C-terminal NH2; two disulfide bridges among Cys1, Cys17, Cys35, Cys48
B6: Compound C302 (designed binder)
chain: B1 chain with X3R, S38A, E39N, K45X
modifications: (Kme) monomethyllysine at 24 and 45; N-terminal Biotin-PEG4; C-terminal NH2; two disulfide bridges among Cys1, Cys17, Cys35, Cys48
B7: Compound C306 (designed binder)
chain: B1 chain with A28X, K45X
modifications: (Kme3) at 3; (Kme) at 24, 28 and 45; N-terminal Biotin-PEG4; C-terminal NH2; two disulfide bridges among Cys1, Cys17, Cys35, Cys48
B8: Compound C310 (designed binder)
chain: B1 chain with T19N, K45X
modifications: (Kme3) at 3; (Kme) at 24 and 45; N-terminal Biotin-PEG4; C-terminal NH2; two disulfide bridges among Cys1, Cys17, Cys35, Cys48
B9: Compound C312 (designed binder)
chain: B1 chain with Q36N, K45X
modifications: (Kme3) at 3; (Kme) at 24 and 45; N-terminal Biotin-PEG4; C-terminal NH2; two disulfide bridges among Cys1, Cys17, Cys35, Cys48
B10: Compound C316 (designed binder)
chain: B1 chain with A29R, S38A, K45X
modifications: (Rme) methylated arginine at 3; (Kme) at 24 and 45; N-terminal Biotin-PEG4; C-terminal NH2; two disulfide bridges among Cys1, Cys17, Cys35, Cys48
B11: Compound C608 (designed binder)
chain: B1 chain with E11X, Q36N, K45X
modifications: (Kme3) at 3; (E(CO-)) at 11 and (K(NH-)) at 45 joined by a lactam bridge; (Kme) at 24; N-terminal Biotin-PEG4; C-terminal NH2; two disulfide bridges
notes: Three constraints (two disulfide bridges, one lactam bridge)
B12: Compound C245 (designed binder)
chain: CAKEKIAALSEIIWLPCLTYAQIXAFIAALNDDPCQSSELLSEAKELNDSQCP
modifications: (homo-leucine) at 24; N-terminal Biotin-PEG4; C-terminal NH2; disulfide bridges between cysteine pairs (Cys1-Cys35 and Cys17-Cys52 named for SEQ ID NO: 213)
B13: Compound C253 (designed binder)
chain: B12 chain
modifications: (Kme2) at 24; N-terminal Biotin-PEG4; C-terminal NH2; disulfide bridges between cysteine pairs
B14: Compound C255 (designed binder)
chain: B12 chain
modifications: (Kme3) at 24; N-terminal Biotin-PEG4; C-terminal NH2; disulfide bridges between cysteine pairs

Molecular target: T1, His-tagged B7-H3 protein (ThermoFisher, …)
Test: SPR (as in Example 2)
Procedure: Surface plasmon resonance (SPR) analyses were performed using Biacore T200 (GE Healthcare). His-tagged B7-H3 protein (ThermoFisher, catalog #B7-H3_NP_001019907), (“ligand”) was immobilized to a Series S NTA chip (Cytiva #28994951). Running buffer was 0.05% Surfactant P20 in HEPES buffered saline (HBS-P), pH 7.4 (Cytiva). Immobilization was performed at 25° C. […] Pulsatile injections were made to target a specific immobilization level. […] Increase in signal (RU) is proportional to an increase in binding events between the analyte and ligand surface. Then injection was then stopped, and dissociation was measured. The resulting sensorgram is reference surface and blank injection subtracted prior to curve fitting. […] KD was calculated using a 1:1 binding model at 25° C.
(§1) Equilibrium binding affinity (KD) was determined using SPR (as in Example 2) or a live cell binding assay (DELFIA) on MCF7 cells that express B7-H3. Binding inhibition constant (Kᵢ) of miniprotein ligands was also determined using MCF7 cells expressing a B7-H3. Cells were dispensed into a 384-well plate and incubated at 37° C. in 5% CO₂ overnight.

| Binder | Kd |
| --- | --- |
| B1 | 1.36 nM |
| B2 | 1.24 nM |
| B3 | 1.43 nM |
| B4 | 0.482 nM |
| B5 | 0.506 nM |
| B6 | 0.558 nM |
| B7 | 0.761 nM |
| B8 | 0.782 nM |
| B9 | 0.485 nM |
| B10 | 0.621 nM |

Molecular target: T2, B7-H3 expressed on the surface of cells …
Test: DELFIA on-cell competition assay on MCF7 cells (FIG. 15); single experiment of FIG. 15
Procedure: as §1
(§2) The plate was incubated for 1.5 h at room temperature to reach equilibrium. Cells were then washed to remove unbound ligand and treated according to manufacturer instructions for a DELFIA® (dissociation-enhanced lanthanide fluorescent immunoassay, Revvity Health Sciences). In brief, 2 M HCl was added to each well and incubated for 2 h at 37° C. Following this step, 2 M NaOH and fluorescent inducer solution were added to each well and incubated for 30 minutes at room temperature. Plates were read on an Envision plate reader and a curve-fitting model was applied to estimate KD and Kᵢ values.

| Binder | Ki |
| --- | --- |
| B1 | ~1.36 nM |

Molecular target: T2, B7-H3 expressed on the surface of cells …
Test: DELFIA competition on live MCF7 cells expressing B7-H3; fixed tracer: europium-chelate miniprotein
Procedure: as §1, §2

| Binder | Ki |
| --- | --- |
| B1 | 1.72 nM |
| B2 | 1.24 nM |
| B3 | 2.24 nM |
| B11 | 3.58 nM |
| B4 | 0.872 nM |
| B5 | 1.91 nM |
| B6 | 1.34 nM |
| B7 | 1.24 nM |
| B8 | 0.886 nM |
| B9 | 1.01 nM |
| B10 | 0.873 nM |

Molecular target: T2, B7-H3 expressed on the surface of cells …
Test: DELFIA competition on cells expressing B7-H3 (as in Example 14); competitor: europium-chelate miniprotein tracer

| Binder | Ki |
| --- | --- |
| B12 | 2.8 nM |
| B13 | 5.36 nM |
| B14 | 8.75 nM |
| CAREKIAALSEIIWLPCLTYAQIXAFIAALNDDPCQSSEILSEAKELCS (designed binder, (Kme2) at 24; N-terminal Biotin-PEG4; C-terminal NH2; two disulfide bridges) [Compound C275] | 1.42 nM |
| {Biotin-PEG4′}-CAREKIAALSEIIWLPCLTYAQIQAFIAALNDDPCQSSEILSEAKELCS-NH2 (designed binder, disulfide (positions not given here)) [Compound C290] | 13.8 nM |
| {Biotin-PEG4′}-CAREKIAALSEIIWLPCLTYAQIVAFIAALNDDPCQSSEILSEAKELCS-NH2 (designed binder, disulfide (positions not given here)) [Compound C291] | 7.7 nM |
| {Biotin-PEG4′}-CAREKIAALSEIIWLPCLTYAQIKAFIAALNDDPCQSSEILSEAKELCS-NH2 (designed binder, disulfide (positions not given here)) [Compound C284] | 2.02 nM |
| {Biotin-PEG4′}-CAREKIAALSEIIWLPCLTYAQILAFIAALNDDPCQSSEILSEAKELCS-NH2 (designed binder, disulfide (positions not given here)) [Compound C286] | 23.9 nM |

Molecular target: T2, B7-H3 expressed on the surface of cells …
Test: DELFIA competition assay on live MCF7 cells expressing B7-H3; the unlabeled competing ligand is varied against a fixed concentration of the europium-chelate miniprotein tracer
Procedure: as §1, §2

| Binder | IC50 (read off the curve) |
| --- | --- |
| B1 | ~3 nM |
